Target: pyruvate kinase M2 (PKM2), endogenous in mouse macrophages (mouse (endogenous in BMDMs or Raw 264.7)) (UniProt P52480)
Assay: cross-linking

Sequence of pyruvate kinase M2 (PKM2), endogenous in mouse macrophages, P52480 1-531 (enzyme; other documents disagree on this pair) (P52480 whole entry): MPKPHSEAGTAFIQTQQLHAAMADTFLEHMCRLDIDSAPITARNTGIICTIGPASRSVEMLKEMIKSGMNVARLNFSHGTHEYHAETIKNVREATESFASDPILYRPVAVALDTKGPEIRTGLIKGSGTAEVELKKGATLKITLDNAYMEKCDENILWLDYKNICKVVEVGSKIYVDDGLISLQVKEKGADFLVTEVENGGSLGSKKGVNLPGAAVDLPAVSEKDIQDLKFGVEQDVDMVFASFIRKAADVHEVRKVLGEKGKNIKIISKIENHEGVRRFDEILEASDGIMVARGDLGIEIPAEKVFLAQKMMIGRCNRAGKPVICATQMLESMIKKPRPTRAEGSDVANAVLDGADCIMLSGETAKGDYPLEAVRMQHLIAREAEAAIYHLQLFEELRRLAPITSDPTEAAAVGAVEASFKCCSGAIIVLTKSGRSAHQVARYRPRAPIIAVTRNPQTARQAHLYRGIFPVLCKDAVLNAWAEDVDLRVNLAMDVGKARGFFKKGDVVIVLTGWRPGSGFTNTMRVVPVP

pyruvate kinase M2 (PKM2), endogenous in mouse macrophages, P52480 1-531 (enzyme; other documents disagree on this pair)
stoichiometry N: 4
